Assay results taken from US20240002497A1 (Merck Sharp & Dohme, published 2024).
Where a chain is given by its changes, count along the chain named. Names and notes keep the numbering of the source.

Tests used:
[1] = target: T1, huNav157chim14 (human); test: binding FACS, HEK Flp-In
T1 construct: HEK Flp-In cells; also called huNav157 chimera 14

[2] = target: T2, huNav157chim14-β1-β2-β3 (human); test: binding FACS, HEK Flp-In
T2 construct: Whole entry; HEK Flp-In cells; also called huNav157 chimera 14-beta1-beta2-beta3

[3] = target: T3, huNav1.7α + β1-β2-β3 (human, UniProt Q15858 1-1988; A5A6L6 19-218; O60939 30-215; Q2KI11 23-215); test: FACS, CHO Flp-In, competitor 1 µM IRR00092
T3 construct: also called huNav1.7-beta1-beta2-beta3; huNav1.7-β1-β2-β3

[4] = target: T4, rhNav1.7α + β1-β2-β3 (rhesus monkey); test: FACS, CHO Flp-In, competitor 1 µM IRR00092
T4 construct: also called rhNav1.7-beta1-beta2-beta3; rhNav1.7-β1-β2-β3

[5] = target: T4, rhNav1.7α + β1-β2-β3; test: FACS, CHO Flp-In, competitor 1 µM F010300703
[6] = target: T3, huNav1.7α + β1-β2-β3; test: binding FACS, CHO Flp-In, periplasmic extract
[7] = target: T5, huNav1.7α (human, UniProt Q15858 1-1988); test: further characterization (binding ELISA and FACS)
T5 construct: HEK cells expressing the α subunit alone; also called HEKa; HEK huNav1.7α

[8] = target: T6, Navβ3 (human, UniProt Q9NY72 23-215, limits assumed); test: binding ELISA
T6 construct: also called beta3 subunit

[9] = target: T7, huNav1.7α (human Nav1.7 alpha subunit, expressed without β subunits) (human, UniProt Q15858 1-1988); test: binding FACS, HEKa cells
T7 construct: also called HEK293 human Nav1.7α; HEKa Nav1.7α

[10] = target: T8, huNav1.7α + β1 (human Nav1.7α co-expressed with Navβ1) (human, UniProt Q15858 1-1988; Q07699 19-218); test: binding FACS, HEKa/β1 cells
T8 construct: also called HEK293 human Nav1.7α + β1; HEKa/β1 Nav1.7α

[11] = target: T9, huNav1.7α + β1-β2-β3 (human Nav1.7α co-expressed with Navβ1, Navβ2 and Navβ3) (human); test: binding FACS, HEK FlpIn cells
T9 construct: also called huNav1.7-beta1-beta2-beta3

[12] = target: T10, huNav157 chimera 14 + β1-β2-β3 (human); test: binding FACS, HEK FlpIn cells
T10 construct: Chimera of huNav1.7α (extracellular loops and transmembrane helices) and huNav1.5α (intracellular loops); also called Nav157ch14-β1-β2-β3; huNav157 chimera 14-beta1-beta2-beta3

[13] = target: T11, huNav157 chimera 14 (human); test: binding FACS, HEK FlpIn cells
T11 construct: Chimera without β subunits; also called Nav157ch14

[14] = target: T12, muNav1.7α (murine Nav1.7α) (murine, UniProt Q62205 1-1984); test: binding FACS; minus = lower activity than reference
T12 construct: HEK Jmp-In cells

[15] = target: T13, huNav1.7α+β1 (human, UniProt Q15858 1-1988; Q07699 19-218); test: binding FACS, HEKa/β1 cells
T13 construct: also called huNav1.7-beta1; HEKa/β1
How it was run: (§1)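 Cells at 1×10^5 per well incubated 30 min at 4 °C with purified FLAG3-tagged ISVD in FACS buffer (PBS, 10% FBS, NaN₃); bound ISVD detected via murine anti-Flag by flow cytometry, dead cells excluded with 1 μg/mL propidium iodide.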

[16] = target: T5, huNav1.7α; test: binding FACS, HEKa cells
How it was run: as §1

[17] = target: T13, huNav1.7α+β1; test: cell-based or functional assay
[18] = target: T14, huNav1.7α+β1-β2-β3 (human, UniProt Q15858 1-1988; Q07699 19-218; O60939 30-215; Q9NY72 23-215); test: binding FACS, HEK FlpIn cells
T14 construct: 5N11S variant; also called huNav1.7-beta1-beta2-beta3; huNav1.7α+Navβ1-Navβ2-Navβ3

B1: F0103PMP492E09 (bispecific antibody)
chain: EVQLVESGGGLVQPGGSLRLSCAASGSIFNINSMAWYRRAPGKQRELVASSTNGGSTNYADSVKGRFTISRDNAKRVYLQMNSLTPEDTAVYYCRALLQPSIYDISRTYWGQGTLVTVSSGGGGSGGGGSGGGGSGGGGSGGGGSGGGGSGGGGSGGGGSGGGGSGGGGSEVQLVESGGGLVQAGGSLRLSCAASKSILSFAYMRWYRQAPGKQREFVASIAIGGATSYTDSVKGRFTISRDNAKNTVYLQMNSLKPEDTAVYYCSAPAGQYRGQGTLVTVSSAAADYKDHDGDYKDHDIDYKDDDDKGAAHHHHHHKAAGGGGG
notes: crude periplasmic extract; also called F103275B05(N93R)-50GS-F0103492E09 bivalent ISVD
Question: How did the MFI [1] turn out when B1 was run?
Answer: 58400 MFI

Question: And the MFI [2]?
Answer: 133000 MFI

Question: What about the MFI [3] of the same binder?
Answer: 104000 MFI

Question: What about the MFI [4] of the same binder?
Answer: 111000 MFI

Question: And the MFI [5]?
Answer: 25200 MFI

Question: What about the MFI [6] of the same binder?
Answer: 40200 MFI

B2: F0103478E09 (VHH)
VHH: EVQLVESGGGLVQAGGSLRLSCAASGRAFSTLAMGWFRQAPGKEREFVAAISRNGNNSATGDSLKGRFTISRDSTKSTVFLQMNTLKPEDTAVYYCAAISTPSASHPYVRKESYRYWGQGTLVTVSS
notes: Purified monovalent protein
Question: Does B2 bind [7]?
Answer: no binding

Question: Does B2 bind [8]?
Answer: no binding

B3: F0103PMP478E09 (bispecific antibody)
chain: EVQLVESGGGLVQPGGSLRLSCAASGSIFNINSMAWYRRAPGKQRELVASSTNGGSTNYADSVKGRFTISRDNAKRVYLQMNSLTPEDTAVYYCRALLQPSIYDISRTYWGQGTLVTVSSGGGGSGGGGSGGGGSGGGGSGGGGSGGGGSGGGGSGGGGSGGGGSGGGGSEVQLVESGGGLVQAGGSLRLSCAASGRAFSTLAMGWFRQAPGKEREFVAAISRNGNNSATGDSLKGRFTISRDSTKSTVFLQMNTLKPEDTAVYYCAAISTPSASHPYVRKESYRYWGQGTQVTVSSAAADYKDHDGDYKDHDIDYKDDDDKGAAHHHHHHKAAGGGGG
notes: Screened as crude periplasmic extract; also called F103275B05(N93R)-50GS-F0103478E09 bivalent ISVD
Question: Which MFI [1] does the source give for B3 here?
Answer: 799 MFI

Question: And the MFI [2]?
Answer: 1230 MFI

Question: And the MFI [3]?
Answer: 137000 MFI

Question: And the MFI [4]?
Answer: 139000 MFI

Question: And the MFI [5]?
Answer: 60600 MFI

Question: What about the MFI [6] of the same binder?
Answer: 82800 MFI

B4: F0103500E03 (VHH)
VHH: EVQLVESGGGLVQPGGSLRLSCAASGRTFSRYQMGWFRQAPGKEREFVAYISWSGSTRYVDSVKGRFTISRDNAKNTVYLQMNSLKPEDTAVYHCAAGTAGIISSRPETYDSWGQGTLVTVSS
notes: Purified monovalent protein
Question: Does B4 bind [7]?
Answer: no binding

Question: Does B4 bind [8]?
Answer: no binding

B5: F0103505D08 (VHH)
VHH: EVQLVESGGGLVQAGGSLRLSCVTSGRTSDLSTMNWFRQAPGKEREFVARITRRGSTYYAESVKERFIISRDNAKNTVYLQMNSLKPEDTANYYCTAASEMGYHYRGQGTLVTVSS
notes: Purified monovalent protein; also called F0103505D8
Question: Does B5 bind [7]?
Answer: no binding

Question: Does B5 bind [8]?
Answer: no binding

B6: F010301850 (VHH)
VHH: EVQLVESGGGVVQPGGSLRLSCAASGRILRIGYMRWYRQAPGKQREFVARITDDSATGYADSVKGRFTISRDNAKNTVYLQMNSLRPEDTALYYCEALVTASVRGGSIHSGTYWGQGTLVTVSS
notes: also called F0103387G05(L11V, A14P, D23A, H37Y, G40A, A41P, D58G, N82bS, N83R, V89L, R105Q)
Question: Which Bmax [9] does the source give for B6 here?
Answer: 100%

Question: And the EC50 [9]?
Answer: 2.8 nM

Question: And the EC50 [10]?
Answer: 1.8 nM

Question: What about the EC50 [11] of the same binder?
Answer: 1.9 nM

Question: What about the EC50 [12] of the same binder?
Answer: 3 nM

Question: And the EC50 [13]?
Answer: 5.4 nM

B7: F010302308 (VHH)
VHH: B6 VHH with N73Y
notes: also called F0103387G05(L11V, A14P, D23A, H37Y, G40A, A41P, D58G, N73Y, N82bS, N83R, V89L, R105Q)
Question: What does the source list for B7?
Answer: Bmax [9]: 100%; EC50 [9]: 1.8 nM; EC50 [10]: 1.3 nM; EC50 [11]: 2 nM

B8: F010302307 (VHH)
VHH: B6 VHH with N73A
notes: also called F0103387G05(L11V, A14P, D23A, H37Y, G40A, A41P, D58G, N73A, N82bS, N83R, V89L, R105Q)
Question: What does the source list for B8?
Answer: Bmax [9]: 100%; EC50 [9]: 2.8 nM; EC50 [10]: 1.9 nM; EC50 [11]: 2.9 nM

B9: F010302309 (VHH)
VHH: B6 VHH with N73Q
notes: also called F0103387G05(L11V, A14P, D23A, H37Y, G40A, A41P, D58G, N73Q, N82bS, N83R, V89L, R105Q)
Question: Which Bmax [9] does the source give for B9 here?
Answer: 100%

Question: What about the EC50 [9] of the same binder?
Answer: 2.2 nM

Question: And the EC50 [10]?
Answer: 1.5 nM

Question: And the EC50 [11]?
Answer: 2.3 nM

B10: F0103492E09 (VHH)
VHH: EVQLVESGGGLVQAGGSLRLSCAASKSILSFAYMRWYRQAPGKQREFVASIAIGGATSYTDSVKGRFTISRDNAKNTVYLQMNSLKPEDTAVYYCSAPAGQYRGQGTLVTVSS
notes: Purified monovalent protein
Question: Which results are given for B10?
Answer: binding result [7]: no binding; binding result [8]: no binding

B11: F0103240B04 (VHH)
VHH: EVQLVESGGGLVQAGGSLRLSCAASGGTGRRYAMGWFRQAPGKEREIVAAIRWSAMTYYADDGKGRFTISRDNAKNTVYLQMNSLKPEDTAIYYCAYTWDYFKYDQVRAYRGWGQGTLVTVSS
notes: Purified monovalent protein; also called anti-Navβ2 ISVD F0103240B04
Question: Does B11 bind [8]?
Answer: no binding

B12: F010301871 (VHH)
VHH: EVQLVESGGGVVQPGGSLRLSCAATSRAFIRDVFTGWYRRVPGKERELVARIYNGGNTNYADFAKGRFTISRDNAKKMVYLQMNSLRPEDTALYYCLFSGTINTGREYRSGDYWGQGTLVTVSS
notes: also called F0103464B09(L11V, T24A, S68T, T79Y, R81Q, S82aN, N82bS, K83R, G88A, V89L); T24A
Question: With B12 as the binder, how does the “EC50 fold change compared to reference” value [14] read?
Answer: -2 fold

B13: F010301872 (VHH)
VHH: B12 VHH with A24T, T25S
notes: also called F0103464B09(L11V, T25S, S68T, T79Y, R81Q, S82aN, N82bS, K83R, G88A, V89L); T25S
Question: With B13 as the binder, how does the “EC50 fold change compared to reference” value [14] read?
Answer: -2 fold

B14: F010301873 (VHH)
VHH: B12 VHH with A24T, R40Q
notes: also called F0103464B09(L11V, R39Q, S68T, T79Y, R81Q, S82aN, N82bS, K83R, G88A, V89L); R39Q
Question: With B14 as the binder, how does the “EC50 fold change compared to reference” value [14] read?
Answer: -4 fold

B15: F010301876 (VHH)
VHH: B12 VHH with A24T, A64V
notes: also called F0103464B09(L11V, A63V, S68T, T79Y, R81Q, S82aN, N82bS, K83R, G88A, V89L); A63V
Question: How did the “EC50 fold change compared to reference” value [14] turn out when B15 was run?
Answer: -2 fold

B16: F0103495F09 (VHH)
VHH: EVQLVESGGGLVQAGSSLSLSCAASGRALSTYAMGWFRQAPGKEREFVARISRSGITTYYTDSVKGRFTISRDRAKDTVYLQMNSLKPEDTAIYLCAADASTNPAGYYLRNRYDYWGQGTLVTVSS
notes: also called F103495F09
Question: Does B16 bind [7]?
Answer: no binding

B17: F010301080 (VHH)
VHH: EVQLVESGGGLVQPGGSLRLSCAASGMLFNANTQGWYRQAPGKQRELVAFIFWGGYVTYNDSVKGRFTISRDNAKRTMYLQMNSLKPEDSAIYYCSLSRYLGQGTLVTVSS
notes: also called F0103265A11(S53W, T57V, N58T, V60N)
Question: How did the “Bmax relative to '535” value [15] turn out when B17 was run?
Answer: 122%

Question: And the EC50 [15]?
Answer: 3 nM

Question: And the EC50 [16]?
Answer: 26 nM

Question: And the “IC50 [M], electrophysiology” value [17]?
Answer: 1.4e-08 M

Question: And the EC50 [18]?
Answer: 5.1 nM
